Results as given in article PMC6992781 (Nature Communications, 2020).

Target: full-length RABV G (isolate 8743THA) (Rabies lyssavirus, isolate 8743THA, UniProt B2XY12, strain)
Assay: flow cytometry on cells
Details: one partner purified

B1: RVC20 (human broadly neutralizing monoclonal antibody, recombinant IgG1/kappa) (antibody, V domains shown)
VH: QVQLQESGPGLVKPSQTLSLTCTVSGGSFSSGSYSWNWIRQHPGKGLEWIGYIYYSGSTYYNPSLKSRVTMSVHTSKNQFSLKLNSITAADTAVYYCARGTYSDFWSGSPLDYWGQGTLVTVSS
VL: DIQMTQSPSSLSASVGDRVTITCRASQGISNYLAWFQQKPGKAPKSLIYAASSLQSGVPSRFSGSGSGTDFTLTINSLQPEDFVTYFCQQYDTYPLTFGGGTKVEIK
  binding result: binds
